Measured values: patent US7407939 (CUREGENICS, dated 2008)
Where no end group is shown, it is not given here. Side-chain parts run from the residue outwards. [ ]: non-standard residue; d: D form. The star is where a group is joined. SO2‑IQ = 5-aminoethylsulfoneamide isoquinoline, O=S(=O)(NCCN*)c1cccc2cnccc12; S‑IQ = 5-mercaptoaminopropyl isoquinoline; hLeu = CC(C)CC[C@H](N)C(=O)O; GltNH2 = not defined here; Nle = CCCC[C@H](N)C(=O)O; Orn = NCCC[C@H](N)C(=O)O; bGaba = not defined here; Dab = NCC[C@H](N)C(=O)O; Nva = CCC[C@H](N)C(=O)O; Abu = CC[C@H](N)C(=O)O; Dap = NC[C@H](N)C(=O)O; Ph2 = not defined here; GlyNH2 = aminoglycine; Ava = NCCCCC(=O)O; βAla = NCCC(=O)O

Tests used:
Assay in all cases: cell-based or functional assay
[1] = target: protein kinase A, catalytic subunit
[2] = target: protein kinase A, catalytic subunit; remark: listed apart in the source
[3] = target: protein kinase A, catalytic subunit; remark: listed apart in the source
[4] = target: protein kinase A, catalytic subunit; remark: listed apart in the source
[5] = target: protein kinase A, catalytic subunit; remark: listed apart in the source

Row | Binder | PKA IC50 [1] [nM] | % Inhibition PKA [2] [%] | other results
1 | RPR[Orn]E([bGaba-SO2‑IQ])SF (reading uncertain) [PTR 6088] | 1000 | – | –
2 | RPR[Nva][GlyNH2][Abu][hLeu] [60006-7B] | – | 24 | –
3 | RPR[Nva][GlyNH2]A[hLeu] [60006-5A] | – | 10 | IC50 µM PKA [4]: 139 µM
4 | RPR[Nle]E([βAla-SO2‑IQ])S[Nle] [PTR 6096] | 200 | – | –
5 | RPR[Nle]E(SO2‑IQ)SF [PTR 6128] | 100 | – | –
6 | RPR[Nva][GlyNH2][Dap][Ph2] (reading uncertain) [60006-11B] | – | 20 | –
7 | RPRTE(SO2‑IQ)SF [PTR 6016] | 100 | – | –
8 | RPRTE([βAla-SO2‑IQ])SF [PTR 6082] | 200 | – | –
9 | RPRVS[Abu]F [TY 60002-61] | – | – | Activity PKA [3]: > 40 µM
10 | RPRTE([βAla-S‑IQ])SF [PTR 6102] | 100 | – | IC50 PKA [5]: 100 nM
11 | RPRTE(S‑IQ)SF [PTR 6104] | 100 | – | IC50 PKA [5]: 100 nM
12 | RPRTS[Dap][hLeu] [TY 60002-96] | – | – | Activity PKA [3]: > 40 µM
13 | RPR[Nva][GlyNH2][GltNH2][hLeu] (reading uncertain) [60006-16A] | – | 21 | –
14 | RPRTE([Ava-SO2‑IQ])SF [PTR 6090] | 600 | – | –
15 | RPR[Nle]E([βAla-SO2‑IQ])SF [PTR 6086] | 500 | – | –
16 | RPRTS[GlyNH2]F [60005-5] | – | 40 | IC50 µM PKA [4]: 7.5 µM

Now from value to binder, other results behind:

Row | PKA IC50 [1] [nM] | % Inhibition PKA [2] [%] | Binder | other results
17 | 5000 | – | RPR[Nva]E([βAla-SO2‑IQ])A[hLeu] [PTR 6152] | –
18 | – | 8 | RPRTS[Abu][hLeu] [TY 60002-73] | Activity PKA [3]: > 40 µM; IC50 µM PKA [4]: 228 µM
19 | 53 | – | RPRTD(SO2‑IQ)SF [PTR 6130] | –
20 | – | 2 | RPRTSA[hLeu] [TY 60002-50] | Activity PKA [3]: > 40 µM
21 | 12 | – | RPR[Orn]E(SO2‑IQ)SF [PTR 6132] | IC50 PKA [5]: 12 nM
22 | 195 | – | RPR[Nle]E([βAla-SO2‑IQ])[Dab]F [PTR 6140] | –
